Source: paper PMC4092090, “Investigation of a MMP-2 Activity-Dependent Anchoring Probe for Nuclear Imaging of Cancer” (PLoS ONE, 2014)
Where two headings read alike, the source gives them in different places.

How the values were obtained:
[1] = tested on: HT1080 tumor bearing mice; parameters: species or system mouse (Balb/c nu-nu); conditions: mouse, in vivo, iv; for Radioactivity biodistribution, Blood / Radioactivity biodistribution, Heart / Radioactivity biodistribution, Intestine / Radioactivity biodistribution, Kidneys / Radioactivity biodistribution, Liver / Radioactivity biodistribution, Lung / Radioactivity biodistribution, Muscle / Radioactivity biodistribution, Pancreas / Radioactivity biodistribution, Spleen / Radioactivity biodistribution, Stomach / Radioactivity biodistribution, Tumor / T/B (tumor to blood ratio): 37 kBq
Procedure: Female Balb/c nu-nu mice (5 weeks old, Japan SLC, Inc., Shizuoka, Japan) were housed under a 12-h light/12-h dark cycle and given free access to food and water. HT1080 cells (5×10^6 cells/100 μl PBS (-)/mouse) were subcutaneously inoculated into the right hind leg of Balb/c nu-nu mice. Animals were used for experiments two weeks after inoculation when the mean tumor size was 5.7±2.2 mm along the major axis. […]3000 and […] (37 kBq, 100 μl in PBS including 3% bovine serum albumin and 0.1% Tween 80) were injected intravenously into the tail vein of tumor bearing mice. The mice were sacrificed at various post-injection time points (n = 3 for each time point), and the organs of interest including the tumor tissues were collected for determination of the weights. The radioactivity of each sample was measured with a NaI well-type scintillation counter. From fitting to the two phase decay curves for blood radioactivity data analyzed by GraphPad Prism 6 (GraphPad Software, San Diego, CA), whole body pharmacokinetic parameters such as blood half-lives, distribution volume, mean residence time and total clearance were calculated for each of the probes and the values compared. Simple pharmacokinetic analysis using a single tissue compartment model was applied to the biodistribution data to calculate rate constants (K1 and k2) for radioactivity transfer from blood to tumor and clearance from tumor to blood by PMOD version 3.2. In addition, MDAP3000 (7.4 MBq in 200 μl) was injected intravenously into the tail vein of tumor bearing mice for metabolite analysis in tumors excised 3, 6, and 24 hr post injection (n = 2 each). Tumor homogenates were prepared on ice and insoluble material was removed by centrifugation after methanol treatment. The resulting supernatant was analyzed by RP-HPLC.

[2] = tested on: HT1080 human fibrosarcoma cells; assay: Cellular uptake study; type: cell-based
Procedure: HT1080 human fibrosarcoma cells were purchased from American Type Culture Collection (ATCC, Manassas, VA USA) and cultured in DMEM with low glucose (Invitrogen), 10% fetal bovine serum (FBS), and penicillin/streptomycin. MMP-2 cDNA was cloned into the pENTR vector (Invitrogen) and inserted into the pLenti6 vector (Invitrogen) as previously described, [7]. […] Protein quantitation was performed by BCA protein assay (Thermo Fisher Scientific, Inc. Rockford, IL USA). The cellular uptake study of MDAP3000 pretreated with activated MMP-2 (63 nM) in the presence or absence of GM6001 (100 µM) was performed as described above.

[3] = target: T1, Human-recombinant MMP-2 protein (Homo sapiens, UniProt P08253); assay: Cleavage assay; type: biochemical; conditions: activated MMP-2 1–5 nM, 370 kBq probe, 37°C, 2 hr, pH 7.5 assay buffer, RP-HPLC, Fig. 3b
T1 construct: purchased R & D Systems, Inc. 902-MP-010
T1 sequence (P08253 110-660): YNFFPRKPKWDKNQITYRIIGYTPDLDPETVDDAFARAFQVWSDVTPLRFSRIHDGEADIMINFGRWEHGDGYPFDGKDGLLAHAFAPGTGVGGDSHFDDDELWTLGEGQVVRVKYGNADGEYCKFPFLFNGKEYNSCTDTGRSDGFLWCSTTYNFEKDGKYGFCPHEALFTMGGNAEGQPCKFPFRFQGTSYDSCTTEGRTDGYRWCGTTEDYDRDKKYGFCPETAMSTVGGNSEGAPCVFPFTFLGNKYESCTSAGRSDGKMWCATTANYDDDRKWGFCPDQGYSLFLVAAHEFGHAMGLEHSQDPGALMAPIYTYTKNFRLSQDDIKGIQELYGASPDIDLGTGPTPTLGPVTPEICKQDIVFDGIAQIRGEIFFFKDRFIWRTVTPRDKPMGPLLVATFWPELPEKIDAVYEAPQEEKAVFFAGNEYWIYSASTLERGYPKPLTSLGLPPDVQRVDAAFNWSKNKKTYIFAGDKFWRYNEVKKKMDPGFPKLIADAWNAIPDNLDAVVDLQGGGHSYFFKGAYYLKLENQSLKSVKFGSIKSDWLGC
Procedure: Human-recombinant MMP-2 protein (902-MP-010, R & D Systems, Inc., Minneapolis, MN USA) was activated with p-aminophenylmercuric acetate (1 mM) in assay buffer (50 mM Tris-HCl, 150 mM NaCl, 10 mM CaCl2, 5 µM ZnCl2, 0.02% Brij 35, pH 7.5). MDAP1000, MDAP3000, and MDAP5000 (370 kBq) were incubated at 37°C for 2 hr with activated MMP-2 (1–5 nM) and a MMP inhibitor (0 or 100 µM, GM6001, Merck KGaA, Darmstadt, Germany). The reaction was quenched by addition of methanol, and the percentage of cleaved peptide was estimated by RP-HPLC.

Palmitoyl-Dap(p-SCN-Bn-DTPA-^111In)-10-Adc-Gly-Pro-Leu-Gly-Val-Arg-Gly-Lys(ivDde)-PEG3000 [MDAP3000]
Blood clearance (in words) [1]: rapid blood clearance | Tumor accumulation (in words) [1]: high tumor accumulation | Radioactivity biodistribution, Blood ([1]; 0.25 h): 44.98±2.53 % injected dose per gram | Radioactivity biodistribution, Heart ([1]; 0.25 h): 9.26±0.86 % injected dose per gram | Radioactivity biodistribution, Intestine ([1]; 0.25 h): 3.59±0.24 % injected dose per gram | Radioactivity biodistribution, Kidneys ([1]; 0.25 h): 11.85±0.84 % injected dose per gram | Radioactivity biodistribution, Liver ([1]; 0.25 h): 18.83±1.38 % injected dose per gram | Radioactivity biodistribution, Lung ([1]; 0.25 h): 20.44±4.77 % injected dose per gram | Radioactivity biodistribution, Muscle ([1]; 0.25 h): 1.72±0.76 % injected dose per gram | Radioactivity biodistribution, Pancreas ([1]; 0.25 h): 3.91±0.33 % injected dose per gram | Radioactivity biodistribution, Spleen ([1]; 0.25 h): 6.53±0.34 % injected dose per gram | Radioactivity biodistribution, Stomach ([1]; 0.25 h): 0.48±0.04 % injected dose per organ | Radioactivity biodistribution, Tumor ([1]; 0.25 h): 3.60±0.17 % injected dose per gram | T/B (tumor to blood ratio) ([1]; 0.25 h): 0.08±0.01 | Radioactivity biodistribution, Blood ([1]; 1 h): 30.48±1.67 % injected dose per gram | Radioactivity biodistribution, Heart ([1]; 1 h): 8.20±0.74 % injected dose per gram | Radioactivity biodistribution, Intestine ([1]; 1 h): 5.85±0.11 % injected dose per gram | Radioactivity biodistribution, Kidneys ([1]; 1 h): 10.60±0.38 % injected dose per gram | Radioactivity biodistribution, Liver ([1]; 1 h): 18.45±0.81 % injected dose per gram | Radioactivity biodistribution, Lung ([1]; 1 h): 15.92±0.58 % injected dose per gram | Radioactivity biodistribution, Muscle ([1]; 1 h): 1.27±0.20 % injected dose per gram | Radioactivity biodistribution, Pancreas ([1]; 1 h): 4.35±0.74 % injected dose per gram | Radioactivity biodistribution, Spleen ([1]; 1 h): 5.65±0.98 % injected dose per gram | Radioactivity biodistribution, Stomach ([1]; 1 h): 0.69±0.21 % injected dose per organ | Radioactivity biodistribution, Tumor ([1]; 1 h): 5.49±0.53 % injected dose per gram | T/B (tumor to blood ratio) ([1]; 1 h): 0.18±0.03 | Radioactivity biodistribution, Blood ([1]; 3 h): 15.33±0.81 % injected dose per gram | Radioactivity biodistribution, Heart ([1]; 3 h): 6.70±0.59 % injected dose per gram | Radioactivity biodistribution, Intestine ([1]; 3 h): 13.13±1.73 % injected dose per gram | Radioactivity biodistribution, Kidneys ([1]; 3 h): 11.89±0.76 % injected dose per gram | Radioactivity biodistribution, Liver ([1]; 3 h): 22.83±3.72 % injected dose per gram | Radioactivity biodistribution, Lung ([1]; 3 h): 9.72±1.02 % injected dose per gram | Radioactivity biodistribution, Muscle ([1]; 3 h): 1.49±0.15 % injected dose per gram | Radioactivity biodistribution, Pancreas ([1]; 3 h): 5.25±0.57 % injected dose per gram | Radioactivity biodistribution, Spleen ([1]; 3 h): 5.41±0.64 % injected dose per gram | Radioactivity biodistribution, Stomach ([1]; 3 h): 1.17±0.82 % injected dose per organ | Radioactivity biodistribution, Tumor ([1]; 3 h): 5.49±0.36 % injected dose per gram | T/B (tumor to blood ratio) ([1]; 3 h): 0.36±0.04 | Radioactivity biodistribution, Blood ([1]; 6 h): 8.33±0.58 % injected dose per gram | Radioactivity biodistribution, Heart ([1]; 6 h): 5.64±0.79 % injected dose per gram | Radioactivity biodistribution, Intestine ([1]; 6 h): 14.08±2.39 % injected dose per gram | Radioactivity biodistribution, Kidneys ([1]; 6 h): 11.40±1.18 % injected dose per gram | Radioactivity biodistribution, Liver ([1]; 6 h): 17.61±2.53 % injected dose per gram | Radioactivity biodistribution, Lung ([1]; 6 h): 5.56±0.75 % injected dose per gram | Radioactivity biodistribution, Muscle ([1]; 6 h): 1.43±0.28 % injected dose per gram | Radioactivity biodistribution, Pancreas ([1]; 6 h): 4.97±1.31 % injected dose per gram | Radioactivity biodistribution, Spleen ([1]; 6 h): 4.94±1.51 % injected dose per gram | Radioactivity biodistribution, Stomach ([1]; 6 h): 0.97±0.46 % injected dose per organ | Radioactivity biodistribution, Tumor ([1]; 6 h): 7.31±1.12 % injected dose per gram | T/B (tumor to blood ratio) ([1]; 6 h): 0.88±0.14 | Radioactivity biodistribution, Blood ([1]; 24 h): 1.61±0.27 % injected dose per gram | Radioactivity biodistribution, Heart ([1]; 24 h): 3.78±0.39 % injected dose per gram | Radioactivity biodistribution, Intestine ([1]; 24 h): 3.70±1.06 % injected dose per gram | Radioactivity biodistribution, Kidneys ([1]; 24 h): 10.81±2.35 % injected dose per gram | Radioactivity biodistribution, Liver ([1]; 24 h): 10.51±0.89 % injected dose per gram | Radioactivity biodistribution, Lung ([1]; 24 h): 2.50±0.44 % injected dose per gram | Radioactivity biodistribution, Muscle ([1]; 24 h): 1.02±0.16 % injected dose per gram | Radioactivity biodistribution, Pancreas ([1]; 24 h): 3.92±0.68 % injected dose per gram | Radioactivity biodistribution, Spleen ([1]; 24 h): 3.92±0.24 % injected dose per gram | Radioactivity biodistribution, Stomach ([1]; 24 h): 0.54±0.07 % injected dose per organ | Radioactivity biodistribution, Tumor ([1]; 24 h): 4.25±0.79 % injected dose per gram | T/B (tumor to blood ratio) ([1]; 24 h): 2.74±0.89 | Cellular accumulation (radioactivity in tumor cells) ([2]; 5×10^5 HT1080 cells, FBS-free DMEM, 37 kBq probe, 30 min incubation, radioactivity counting, Fig. 3a): significantly lower radioactivity | Increased cellular uptake of MMP-2 pretreated probe with additional MMP inhibitor ([2]; HT1080 cells, activated MMP-2 (63 nM) plus GM6001 (100 µM), Fig. 3c): completely blocked | Cellular accumulation of probe pretreated with MMP-2 ([2]; HT1080 cells, probe pretreated with activated MMP-2 (63 nM), 30 min, Fig. 3c): accumulated in cells to higher levels | Cleavage by MMP-2 [3]: concentration-dependent manner
